The assay addresses PabA variant aY127A (Escherichia coli) (UniProt P00903). Nature of the assay: ITC; 250 μM PabB titrated into 25 μM PabA in the cell; 25 °C; 50 mM Tris/HCl pH 7.5, 50 mM KCl, 5 mM MgCl2; without Cho and Gln; one set of sites. A general note: ITC needs no label: the signal is the heat of the interaction.

pKd: −log10 of the molar value.

The pKd is the Kd on a negative log10 scale, so that one unit is a factor of ten. Lower therefore signals a large Kd. Regarding “PabB, synthase subunit of aminodeoxychorismate synthase (ADCS) from Escherichia coli, wild type (from UniProt P05041 1-453) (enzyme)”, the pKd is less than 5.10.

For the origin of these results see paper PMC7617670.
